Assay results: the supplement of paper PMC11246515
± gives the standard deviation of the averaged measurements.

Assay: total protein half-life in vivo (active degradation + dilution); higher = more stable protein
[1] = E. coli NCM3722 delta-clpP delta-lon delta-hslV, growth: N-lim chemostat, doubling time 6 h
[2] = E. coli NCM3722 delta-clpP, growth: N-lim chemostat, doubling time 6 h
[3] = E. coli NCM3722 delta-hslV, growth: N-lim chemostat, doubling time 6 h
[4] = E. coli NCM3722 delta-lon, growth: N-lim chemostat, doubling time 6 h
[5] = E. coli NCM3722 delta-smpB, growth: N-lim chemostat, doubling time 6 h
[6] = wild type E. coli NCM3722, growth: C-lim chemostat, doubling time 3 h
[7] = wild type E. coli NCM3722, growth: C-lim chemostat, doubling time 6 h
[8] = wild type E. coli NCM3722, growth: C-lim chemostat, doubling time 12 h
[9] = wild type E. coli NCM3722, growth: N-lim chemostat, doubling time 6 h
[10] = wild type E. coli NCM3722, growth: N-lim chemostat, doubling time 12 h
[11] = wild type E. coli NCM3722, growth: P-lim chemostat, doubling time 6 h
[12] = wild type E. coli NCM3722, growth: P-lim chemostat, doubling time 12 h

Sequence	total protein half-life in vivo [1] [h]	total protein half-life in vivo [2] [h]	total protein half-life in vivo [3] [h]	total protein half-life in vivo [4] [h]	total protein half-life in vivo [5] [h]	total protein half-life in vivo [6] [h]	total protein half-life in vivo [7] [h]	total protein half-life in vivo [8] [h]	total protein half-life in vivo [9] [h]	total protein half-life in vivo [10] [h]	total protein half-life in vivo [11] [h]	total protein half-life in vivo [12] [h]
MTLLALGINHKTAPVSLRERVSFSPDKLDQALDSLLAQPMVQGGVVLSTCNRTELYLSVEEQDNLQEALIRWLCDYHNLNEEDLRKSLYWHQDNDAVSHLMRVASGLDSLVLGEPQILGQVKKAFADSQKGHMKASELERMFQKSFSVAKRVRTETDIGASAVSVAFAACTLARQIFESLSTVTVLLVGAGETIELVARHLREHKVQKMIIANRTRERAQILADEVGAEVIALSDIDERLREADIIISSTASPLPIIGKGMVERALKSRRNQPMLLVDIAVPRDVEPEVGKLANAYLYSVDDLQSIISHNLAQRKAAAVEAETIVAQETSEFMAWLRAQSASETIREYRSQAEQVRDELTAKALAALEQGGDAQAIMQDLAWKLTNRLIHAPTKSLQQAARDGDNERLNILRDSLGLE [P0A6X1]	4.33 ± 0.069	2.95 ± 0.26	1.55	1.59 ± 0.083	1.51 ± 0.25	1.03	1.84 ± 0.15	2.76 ± 0.68	1.35 ± 0.31	2.08	1.29 ± 0.43	1.9
MIKIGVIADDFTGATDIASFLVENGLPTVQINGVPTGKMPEAIDALVISLKTRSCPVVEATQQSLAALSWLQQQGCKQIYFKYCSTFDSTAKGNIGPVTDALMDALDTPFTVFSPALPVNGRTVYQGYLFVMNQLLAESGMRHHPVNPMTDSYLPRLVEAQSTGRCGVVSAHVFEQGVDAVRQELARLQQEGYRYAVLDALTEHHLEIQGEALRDAPLVTGGSGLAIGLARQWAQENGNQARKAGRPLAGRGVVLSGSCSQMTNRQVAHYRQIAPAREVDVARCLSIETLAAYAHELAEWVLGQESVLAPLVFATASTDALAAIQQQYGAQKASQAVETLFSQLAARLAAEGVTRFIVAGGETSGVVTQSLGIKGFHIGPTISPACRG	5.65 ± 0.84	–	–	–	–	–	–	–	–	–	–	11.4
MKPDAHQVKQFLLNLQDTICQQLTAVDGAEFVEDSWQREAGGGGRSRVLRNGGVFEQAGVNFSHVHGEAMPASATAHRPELAGRSFEAMGVSLVVHPHNPYVPTSHANVRFFIAEKPGADPVWWFGGGFDLTPFYGFEEDAIHWHRTARDLCLPFGEDVYPRYKKWCDEYFYLKHRNEQRGIGGLFFDDLNTPDFDRCFAFMQAVGKGYTDAYLPIVERRKAMAYGERERNFQLYRRGRYVEFNLVWDRGTLFGLQTGGRTESILMSMPPLVRWEYDYQPKDGSPEAALSEFIKVRDWV	5.53 ± 1.4	4.55 ± 0.073	5 ± 0.44	5.01 ± 0.37	4.05 ± 0.34	–	5.24 ± 0.9	10.1 ± 0.14	4.29 ± 0.35	7.38 ± 0.34	6.06 ± 0.66	11.7 ± 0.97
MTYQQAGRIAVLKRILGWVIFIPALISTLISLLKFMNTRQENKEGINAVMLDFTHVMIDMMQANTPFLNLFWYNSPTPNFNGGVNVMFWVIFILIFVGLALQDSGARMSRQARFLREGVEDQLILEKAKGEEGLTREQIESRIVVPHHTIFLQFFSLYILPVICIAAGYVFFSLLGFI	5.41 ± 0.081	5.2 ± 0.35	5.42 ± 0.091	5.94	6.11 ± 1.1	2.86 ± 0.074	–	13.5 ± 0.8	5.62 ± 0.27	9.96 ± 2.3	5.46 ± 0.11	12 ± 0.18
MYEFDWSSIVPSLPYLLDGLVITLKITVTAVVIGILWGTMLAVMRLSSFAPVAWFAKAYVNVFRSIPLVMVLLWFYLIVPGFLQNVLGLSPKNDIRLISAMVAFSMFEAAYYSEIIRAGIQSISRGQSSAALALGMTHWQSMKLIILPQAFRAMVPLLLTQGIVLFQDTSLVYVLSLADFFRTASTIGERDGTQVEMILFAGFVYFVISLSASLLVSYLKRRTA [P0AER5]	7.04	5.18	6.35	5.47	5.15 ± 0.1	–	6.05 ± 0.51	12.6 ± 1.8	5.68 ± 0.1	9.5 ± 4.4	6.36 ± 0.33	11.4 ± 0.52
MSSTNIEQVMPVKLAQALANPLFPALDSALRSGRHIGLDELDNHAFLMDFQEYLEEFYARYNVELIRAPEGFFYLRPRSTTLIPRSVLSELDMMVGKILCYLYLSPERLANEGIFTQQELYDELLTLADEAKLLKLVNNRSTGSDVDRQKLQEKVRSSLNRLRRLGMVWFMGHDSSKFRITESVFRFGADVRAGDDPREAQRRLIRDGEAMPIENHLQLNDETEENQPDSGEEE	6.36 ± 0.27	6.18 ± 0.4	–	6.21 ± 0.7	5.67 ± 0.27	2.98 ± 0.069	5.85 ± 0.17	11.1 ± 0.5	5.85 ± 0.31	9.43 ± 0.28	5.716 ± 0.029	10.7 ± 0.54
MSAQPVDIQIFGRSLRVNCPPDQRDALNQAADDLNQRLQDLKERTRVTNTEQLVFIAALNISYELAQEKAKTRDYAASMEQRIRMLQQTIEQALLEQGRITEKTNQNFE [P0ADS2]	–	> 8	6.14 ± 0.47	6.82 ± 0.47	5.21 ± 0.4	3.87	6.05 ± 0.48	10.5	4.5 ± 0.25	9.14 ± 1.6	5.16 ± 0.74	10.8 ± 1
MLDLFADAEPWQEPLAAGAVILRRFAFNAAEQLIRDINDVASQSPFRQMVTPGGYTMSVAMTNCGHLGWTTHRQGYLYSPIDPQTNKPWPAMPQSFHNLCQRAATAAGYPDFQPDACLINRYAPGAKLSLHQDKDEPDLRAPIVSVSLGLPAIFQFGGLKRNDPLKRLLLEHGDVVVWGGESRLFYHGIQPLKAGFHPLTIDCRYNLTFRQAGKKE	–	4.32	2.76	3.17	3.02 ± 0.09	–	–	–	2.87 ± 0.47	4.66 ± 0.55	3.76 ± 0.13	5.89
MESLMPWDARDTMSLRTEFVLFASQDGANIRSLCRRFGISPATGYKWLQRWAQEGAAGLQDRPRIPHHSPNRSSDDITALLRMAHDRHERWGARKIKRWLEDQGHTMPAFSTVHNLMARHGLLPGASPGIPATGRFEHDAPNRLWQMDFKGHFPFGGGRCHPLTLLDDHSRFSLCLAHCTDERRETVQQQLVSVFERYGLPDRMTMDNGSPWGDTTGTWTALELWLMRLGIRVGHSRPYHPQTQGKLERFHRSLKAEVLQGKWFADSGELQRAFDHWRTVYNLERPHEALDMAVPGSRYQPSARQYSGNTTPPEYDEGVMVRKVDISGKLSVKGVSLSAGKAFRGERVGLKEMQEDGSYEVWWYSTKVGVIDLKKKSITMGKGC	3.5 ± 0.88	3.06	–	–	–	–	2.18	5.67	–	4.45	–	–
MALTKAEMSEYLFDKLGLSKRDAKELVELFFEEIRRALENGEQVKLSGFGNFDLRDKNQRPGRNPKTGEDIPITARRVVTFRPGQKLKSRVENASPKDE [P0A6X7]	–	6.46 ± 1	–	7.06 ± 0.79	5.2 ± 0.41	3.249 ± 0.0028	–	–	5.83 ± 0.23	–	6.33 ± 0.39	11.7 ± 1.9
MKRIAFVFSTAPHGTAAGREGLDALLATSALTDDLAVFFIADGVFQLLPGQKPDAVLARDYIATFKLLGLYDIEQCWVCAASLRERGLDPQTPFVVEATPLEADALRRELANYDVILRF	5 ± 0.57	4.73	4.7 ± 0.82	5.18 ± 0.19	4.61 ± 0.23	> 4	6 ± 0.18	11.2 ± 0.57	4.83 ± 0.091	7.67 ± 0.38	5.89 ± 1.2	13.9 ± 2.3
MNAPFTYSSPTLSVEALKHSIAYKLMFTIGKDPVVANKHEWLNATLFAVRDRLVERWLRSNRAQLSQETRQVYYLSMEFLIGRTLSNAMLSLGIYEDVQGALEAMGLNLEELIDEENDPGLGNGGLGRLAACFLDSLATLGLPGRGYGIRYDYGMFKQNIVNGSQKESPDYWLEYGNPWEFKRHNTRYKVRFGGRIQQEGKKTRWIETEEILGVAYDQIIPGYDTDATNTLRLWSAQASSEINLGKFNQGDYFAAVEDKNHSENVSRVLYPDDSTYSGRELRLRQEYFLVSSTIQDILSRHYQLHKTYDNLADKIAIHLNDTHPVLSIPEMMRLLIDEHQFSWDDAFEVCCQVFSYTNHTLMSEALETWPVDMLGKILPRHLQIIFEINDYFLKTLQEQYPNDTDLLGRASIIDESNGRRVRMAWLAVVVSHKVNGVSELHSNLMVQSLFADFAKIFPGRFTNVTNGVTPRRWLAVANPSLSAVLDEHLGRNWRTDLSLLNELQQHCDFPMVNHAVHQAKLENKKRLAEYIAQQLNVVVNPKALFDVQIKRIHEYKRQLMNVLHVITRYNRIKADPDAKWVPRVNIFGGKAASAYYMAKHIIHLINDVAKVINNDPQIGDKLKVVFIPNYSVSLAQLIIPAADLSEQISLAGTEASGTSNMKFALNGALTIGTLDGANVEMLDHVGADNIFIFGNTAEEVEELRRQGYKPREYYEKDEELHQVLTQIGSGVFSPEDPGRYRDLVDSLINFGDHYQVLADYRSYVDCQDKVDELYELQEEWTAKAMLNIANMGYFSSDRTIKEYADHIWHIDPVRL [P0AC86]	6.11 ± 0.49	5.45 ± 0.2	5.71 ± 0.2	5.65 ± 0.26	5.54 ± 0.24	3.18 ± 0.28	5.27 ± 0.13	10.1 ± 0.57	5.448 ± 0.0098	10.1 ± 0.65	6.01 ± 0.15	11.9 ± 1
MTITPATHAISINPATGEQLSVLPWAGADDIENALQLAAAGFRDWRETNIDYRAEKLRDIGKALRARSEEMAQMITREMGKPINQARAEVAKSANLCDWYAEHGPAMLKAEPTLVENQQAVIEYRPLGTILAIMPWNFPLWQVMRGAVPIILAGNGYLLKHAPNVMGCAQLIAQVFKDAGIPQGVYGWLNADNDGVSQMIKDSRIAAVTVTGSVRAGAAIGAQAGAALKKCVLELGGSDPFIVLNDADLELAVKAAVAGRYQNTGQVCAAAKRFIIEEGIASAFTERFVAAAAALKMGDPRDEENALGPMARFDLRDELHHQVEKTLAQGARLLLGGEKMAGAGNYYPPTVLANVTPEMTAFREEMFGPVAAITIAKDAEHALELANDSEFGLSATIFTTDETQARQMAARLECGGVFINGYCASDARVAFGGVKKSGFGRELSHFGLHEFCNIQTVWKDRI	3.43 ± 0.22	2.38 ± 0.15	2.3185 ± 0.00041	3.35 ± 0.57	2.62 ± 0.24	2.87 ± 0.15	4.72 ± 0.27	7.87 ± 0.72	2.56 ± 0.092	3.65 ± 0.4	5.341 ± 0.022	9.54 ± 0.88
MKKTQRKEIENVTNITGVRQIELWRRDDLQHPRLDEVAEEVPVALVYNGISHVVMMASPKDLEYFALGFSLSEGIIESPRDIFGMDVVPSCNGLEVQIELSSRRFMGLKERRRALAGRTGCGVCGVEQLNDIGKPVQPLPFTQTFDLNKLDDALRHLNDFQPVGQLTGCTHAAAWMLPSGELVGGHEDVGRHVALDKLLGRRSQEGESWQQGAVLVSSRASYEMVQKSAMCGVEILFAVSAATTLAVEVAERCNLTLVGFCKPGRATVYTHPQRLSN	5.53 ± 0.71	> 8	3.83 ± 0.57	4.1 ± 0.3	3.793 ± 0.019	2.89 ± 0.25	4.79 ± 0.16	9.01 ± 0.31	3.88 ± 0.38	6.61 ± 0.14	4.99 ± 0.11	10.5 ± 0.64
MNSRQQTILQMVIDQGQVSVTDLAKATGVSEVTIRQDLNTLEKLSYLRRAHGFAVSLDSDDVETRMMSNYTLKRELAEFAASLVQPGETIFIENGSSNALLARTLGEQKKNVTIITVSSYIAHLLKDAPCEVILLGGVYQKKSESMVGPLTRQCIQQVHFSKAFIGIDGWQPETGFTGRDMMRTDVVNAVLEKECEAIVLTDSSKFGAVHSYSIGPVERFNRVITDSKIRASDLMHLEHSKLTIHVVDI	6.45 ± 1.4	6.46 ± 0.62	6.54 ± 0.67	6.01 ± 0.45	5.76 ± 0.27	2.87 ± 0.21	5.51 ± 0.27	11.6 ± 0.87	5.91 ± 0.31	–	5.57 ± 0.19	13.3 ± 0.69
MTELPIDENTPRILIVEDEPKLGQLLIDYLRAASYAPTLISHGDQVLPYVRQTPPDLILLDLMLPGTDGLTLCREIRRFSDIPIVMVTAKIEEIDRLLGLEIGADDYICKPYSPREVVARVKTILRRCKPQRELQQQDAESPLIIDEGRFQASWRGKMLDLTPAEFRLLKTLSHEPGKVFSREQLLNHLYDDYRVVTDRTIDSHIKNLRRKLESLDAEQSFIRAVYGVGYRWEADACRIV	4.22 ± 0.48	4.1 ± 0.35	4.1 ± 0.073	4.58 ± 0.1	4.01 ± 0.14	2.89 ± 0.092	5.54 ± 0.16	11.7 ± 2.5	4.05 ± 0.21	6.62 ± 0.32	5.58 ± 0.26	13.5 ± 0.37
